# Changes are numbered by the printed parent chain.
# B1: 475 (protein)
# chain: LDNGLARTPTMGWLHWERFMCNLDCQEEPDSCISEKLFMEMAERMVSEGWKDAGYEYLCIDDCWMAPQRDSEGRLQADPQRFPHGIRQLANYVHSKGLKLGIYADVGNKTCAGFPGSFGYYDIDAQTFADWGVDLLKFDGCYCDSLENLADGYKHMSLALNRTGRSIVYSCEWPLYMWPFQKPNYTEIRQYCNHWRNFADIDDSWKSIKSILDWTSFNQERIVDVAGPGGWNDPDMLVIGNFGLSWNQQVTQMALWAIMAAPLFMSNDLRHISPQAKALLQDKDVIAINQDPLGKQGYQLRQGDNFEVWERPLSGLAWAVAMINRQEIGGPRSYTIAVASLGKGVACNPACFITQLLPVKRKLGFYEWTSRLRSHINPTGTVLLQLENDMQMSLKDLL
# modifications: Synthetic Polypeptide sequence of Variant No. 475 of mature Human GLA
# B2: 481 (protein)
# chain: B1 chain with D389T, M390G
# modifications: Synthetic Polypeptide sequence of Variant No. 481 of mature Human GLA
# B3: 480 (protein)
# chain: B1 chain with D389T, M390R
# modifications: Synthetic Polypeptide sequence of Variant No. 480 of mature Human GLA
# B4: 476 (protein)
# chain: B1 chain with D389T, M390E
# modifications: Synthetic Polypeptide sequence of Variant No. 476 of mature Human GLA
# B5: 477 (protein)
# chain: B1 chain with L384W, D389T
# modifications: Synthetic Polypeptide sequence of Variant No. 477 of mature Human GLA
# B6: 470 (protein)
# chain: LDNGLARTPTMGWLHWERFMCNLDCQEEPDSCISEKLFMEMAERMVSEGWKDAGYEYLCIDDCWMAPQRDSEGRLQADPQRFPHGIRQLANYVHSKGLKLGIYADVGNKTCAGFPGSFGYYDIDAQTFADWGVDLLKFDGCYCDSLENLADGYKHMSLALNRTGRSIVYSCEWPLYMWPFQKPNYTEIRQYCNHWRNFADIDDSWKSIKSILDWTSRNQERIVDVAGPGGWNDPDMLVIGNFGLSWDQQVTQMALWAIMAAPLFMSNDLRHISPQAKALLQDKDVIAINQDPLGKQGYQLRKGDNFEVWERPLSGDAWAVAIINRQEIGGPRSYTIPVASLGKGVACNPACFITQLLPVKRQLGFYNWTSRLKSHINPTGTVLLQLENTMQRSLKDLL
# modifications: Synthetic Polypeptide sequence of Variant No. 470 of mature Human GLA
# B7: 479 (protein)
# chain: B1 chain with D389T, M392F
# modifications: Synthetic Polypeptide sequence of Variant No. 479 of mature Human GLA
# B8: 472 (protein)
# chain: B6 chain with R392K
# modifications: Synthetic Polypeptide sequence of Variant No. 472 of mature Human GLA
# B9: 478 (protein)
# chain: B1 chain with D389T, M392S
# modifications: Synthetic Polypeptide sequence of Variant No. 478 of mature Human GLA
# B10: 369 (protein)
# chain: B6 chain with R44S, R392M
# modifications: Synthetic Polypeptide sequence of Variant No. 369 of mature Human GLA
# B11: 471 (protein)
# chain: B6 chain with T389W, R392M
# modifications: Synthetic Polypeptide sequence of Variant No. 471 of mature Human GLA
# B12: 474 (protein)
# chain: B6 chain with L386F, R392M
# modifications: Synthetic Polypeptide sequence of Variant No. 474 of mature Human GLA
# B13: 473 (protein)
# chain: B6 chain with R392L
# modifications: Synthetic Polypeptide sequence of Variant No. 473 of mature Human GLA
# Legend:
# Type in all cases: biochemical
# [1] = HTP-analysis of supernatants pretreated with acid (MUGal hydrolysis); conditions: activity of the variant/activity of Rd4BB (SEQ ID NO: 15); challenge at pH 3.7
# Summary of the method: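 Fluorescence of MUGal hydrolysis (Ex. 355 nm, Em. 448 nm) is read after sodium carbonate quench. The enzyme source is INVSc1 yeast culture supernatant, first exposed to pH 3.3-4.3 McIlvaine buffer at 37° C. for 1-3 h, then reacted at pH 4.8 for 30-180 minutes.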
# [2] = HTP-analysis of supernatants pretreated with base (MUGal hydrolysis); conditions: activity of the variant/activity of Rd4BB (SEQ ID NO: 15); challenge at pH 9.65
# Summary of the method: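 Supernatants from INVSc1 yeast expressing GLA variants (SD-Ura, 66-84 h, 30° C) were mixed with McIlvaine buffer pH 7.0-8.2 or 200 mM sodium bicarbonate pH 9.1-9.7 and held 1-18 h at 37° C. Residual activity was then measured on MUGal at pH 4.8/4.3, 37° C, 30-180 min, by fluorescence (Ex 355/Em 448 nm).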
# [3] = HTP-analysis of yeast culture supernatants, no challenge (MUGal hydrolysis); conditions: activity of the variant/activity of Rd4BB (SEQ ID NO: 15)
# Summary of the method: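 GLA variants were expressed in INVSc1 yeast grown in SD-Ura broth with glucose at 30° C., and culture supernatants were collected after 66-84 h. Supernatant was mixed with McIlvaine buffer pH 4.8 and MUGal (2 mM stock) in 50 mM citrate, 200 mM KCl, pH 4.6, incubated at 37° C. for 30-180 minutes, then quenched with sodium carbonate.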
Molecule,Relative Activity of GLA Variants After Challenge at pH 3.7 [1],Relative Activity of GLA Variants After Challenge at pH 9.65 [2],Relative Activity of GLA Variants After No Challenge (NC) [3]
B1,+ (0.5 to 1.5 relative activity over Rd4BB (SEQ ID NO: 15)),+ (0.5 to 1.5 relative activity over Rd4BB (SEQ ID NO: 15)),+ (0.5 to 1.5 relative activity over Rd4BB (SEQ ID NO: 15))
B2,+ (0.5 to 1.5 relative activity over Rd4BB (SEQ ID NO: 15)),+ (0.5 to 1.5 relative activity over Rd4BB (SEQ ID NO: 15)),+ (0.5 to 1.5 relative activity over Rd4BB (SEQ ID NO: 15))
B3,+ (0.5 to 1.5 relative activity over Rd4BB (SEQ ID NO: 15)),+ (0.5 to 1.5 relative activity over Rd4BB (SEQ ID NO: 15)),+ (0.5 to 1.5 relative activity over Rd4BB (SEQ ID NO: 15))
B4,+ (0.5 to 1.5 relative activity over Rd4BB (SEQ ID NO: 15)),+ (0.5 to 1.5 relative activity over Rd4BB (SEQ ID NO: 15)),+ (0.5 to 1.5 relative activity over Rd4BB (SEQ ID NO: 15))
B5,− (<0.5 relative activity over Rd4BB (SEQ ID NO: 15)),+ (0.5 to 1.5 relative activity over Rd4BB (SEQ ID NO: 15)),+ (0.5 to 1.5 relative activity over Rd4BB (SEQ ID NO: 15))
B6,++ (>1.5 to 2.5 relative activity over Rd4BB (SEQ ID NO: 15)),+ (0.5 to 1.5 relative activity over Rd4BB (SEQ ID NO: 15)),+ (0.5 to 1.5 relative activity over Rd4BB (SEQ ID NO: 15))
B7,+ (0.5 to 1.5 relative activity over Rd4BB (SEQ ID NO: 15)),+ (0.5 to 1.5 relative activity over Rd4BB (SEQ ID NO: 15)),+ (0.5 to 1.5 relative activity over Rd4BB (SEQ ID NO: 15))
B8,+ (0.5 to 1.5 relative activity over Rd4BB (SEQ ID NO: 15)),+ (0.5 to 1.5 relative activity over Rd4BB (SEQ ID NO: 15)),+ (0.5 to 1.5 relative activity over Rd4BB (SEQ ID NO: 15))
B9,++ (>1.5 to 2.5 relative activity over Rd4BB (SEQ ID NO: 15)),+ (0.5 to 1.5 relative activity over Rd4BB (SEQ ID NO: 15)),+ (0.5 to 1.5 relative activity over Rd4BB (SEQ ID NO: 15))
B10,+ (0.5 to 1.5 relative activity over Rd4BB (SEQ ID NO: 15)),− (<0.5 relative activity over Rd4BB (SEQ ID NO: 15)),+ (0.5 to 1.5 relative activity over Rd4BB (SEQ ID NO: 15))
B11,+ (0.5 to 1.5 relative activity over Rd4BB (SEQ ID NO: 15)),+ (0.5 to 1.5 relative activity over Rd4BB (SEQ ID NO: 15)),+ (0.5 to 1.5 relative activity over Rd4BB (SEQ ID NO: 15))
B12,++ (>1.5 to 2.5 relative activity over Rd4BB (SEQ ID NO: 15)),+ (0.5 to 1.5 relative activity over Rd4BB (SEQ ID NO: 15)),+ (0.5 to 1.5 relative activity over Rd4BB (SEQ ID NO: 15))
B13,+ (0.5 to 1.5 relative activity over Rd4BB (SEQ ID NO: 15)),+ (0.5 to 1.5 relative activity over Rd4BB (SEQ ID NO: 15)),+ (0.5 to 1.5 relative activity over Rd4BB (SEQ ID NO: 15))
